Experimental data published in paper doi:10.1101/2020.01.02.893016 (bioRxiv, 2020).

Target: T1, ROOTY (RTY) protein, wild type, C-S lyase (Arabidopsis thaliana, UniProt Q9SIV0 1-462)
T1 sequence (looked up): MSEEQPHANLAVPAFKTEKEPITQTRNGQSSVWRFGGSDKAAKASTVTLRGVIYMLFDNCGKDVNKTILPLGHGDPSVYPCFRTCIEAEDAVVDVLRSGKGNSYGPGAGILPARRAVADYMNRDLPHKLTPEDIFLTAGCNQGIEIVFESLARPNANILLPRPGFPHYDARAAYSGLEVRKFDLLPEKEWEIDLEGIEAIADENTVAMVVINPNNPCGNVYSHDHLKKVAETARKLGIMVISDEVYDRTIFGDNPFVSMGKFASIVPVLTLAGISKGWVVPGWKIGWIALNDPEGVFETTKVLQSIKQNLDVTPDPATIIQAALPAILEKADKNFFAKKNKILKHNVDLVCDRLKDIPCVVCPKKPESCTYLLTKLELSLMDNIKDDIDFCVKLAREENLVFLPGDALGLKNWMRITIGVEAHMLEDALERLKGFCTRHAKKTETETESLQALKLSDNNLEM
Assay: two-hybrid

- beta-galactosidase activity relative to WT-WT: ~80%
B1: ROOTY (RTY) protein, D315N mutant (TG8B allele) (enzyme, Arabidopsis thaliana, UniProt Q9SIV0 1-462, looked up)
chain: MSEEQPHANLAVPAFKTEKEPITQTRNGQSSVWRFGGSDKAAKASTVTLRGVIYMLFDNCGKDVNKTILPLGHGDPSVYPCFRTCIEAEDAVVDVLRSGKGNSYGPGAGILPARRAVADYMNRDLPHKLTPEDIFLTAGCNQGIEIVFESLARPNANILLPRPGFPHYDARAAYSGLEVRKFDLLPEKEWEIDLEGIEAIADENTVAMVVINPNNPCGNVYSHDHLKKVAETARKLGIMVISDEVYDRTIFGDNPFVSMGKFASIVPVLTLAGISKGWVVPGWKIGWIALNDPEGVFETTKVLQSIKQNLDVTPNPATIIQAALPAILEKADKNFFAKKNKILKHNVDLVCDRLKDIPCVVCPKKPESCTYLLTKLELSLMDNIKDDIDFCVKLAREENLVFLPGDALGLKNWMRITIGVEAHMLEDALERLKGFCTRHAKKTETETESLQALKLSDNNLEM
